Columns and labels:
Test in all cases: flow cytometry
Settings in all cases: apparent Kd on cells; SPR at 25 C, His-KIT on CM5 chip, 50 mM NaOH regeneration; flow cytometry with 250 nM Cy5-aptamer in binding buffer with 1 mg/ml BSA and 1 mM yeast tRNA; salt …
[1] = biological target: KIT on GIST-430/654 cells (human (GIST-430/654)) (UniProt P10721)
[2] = biological target: KIT on GIST-T1 cells (human (GIST-T1)) (UniProt P10721)
[3] = biological target: KIT on GIST-430 cells (human (GIST-430)) (UniProt P10721)
Sequence of KIT on GIST-430 cells (human (GIST-430)) (P10721 26-976): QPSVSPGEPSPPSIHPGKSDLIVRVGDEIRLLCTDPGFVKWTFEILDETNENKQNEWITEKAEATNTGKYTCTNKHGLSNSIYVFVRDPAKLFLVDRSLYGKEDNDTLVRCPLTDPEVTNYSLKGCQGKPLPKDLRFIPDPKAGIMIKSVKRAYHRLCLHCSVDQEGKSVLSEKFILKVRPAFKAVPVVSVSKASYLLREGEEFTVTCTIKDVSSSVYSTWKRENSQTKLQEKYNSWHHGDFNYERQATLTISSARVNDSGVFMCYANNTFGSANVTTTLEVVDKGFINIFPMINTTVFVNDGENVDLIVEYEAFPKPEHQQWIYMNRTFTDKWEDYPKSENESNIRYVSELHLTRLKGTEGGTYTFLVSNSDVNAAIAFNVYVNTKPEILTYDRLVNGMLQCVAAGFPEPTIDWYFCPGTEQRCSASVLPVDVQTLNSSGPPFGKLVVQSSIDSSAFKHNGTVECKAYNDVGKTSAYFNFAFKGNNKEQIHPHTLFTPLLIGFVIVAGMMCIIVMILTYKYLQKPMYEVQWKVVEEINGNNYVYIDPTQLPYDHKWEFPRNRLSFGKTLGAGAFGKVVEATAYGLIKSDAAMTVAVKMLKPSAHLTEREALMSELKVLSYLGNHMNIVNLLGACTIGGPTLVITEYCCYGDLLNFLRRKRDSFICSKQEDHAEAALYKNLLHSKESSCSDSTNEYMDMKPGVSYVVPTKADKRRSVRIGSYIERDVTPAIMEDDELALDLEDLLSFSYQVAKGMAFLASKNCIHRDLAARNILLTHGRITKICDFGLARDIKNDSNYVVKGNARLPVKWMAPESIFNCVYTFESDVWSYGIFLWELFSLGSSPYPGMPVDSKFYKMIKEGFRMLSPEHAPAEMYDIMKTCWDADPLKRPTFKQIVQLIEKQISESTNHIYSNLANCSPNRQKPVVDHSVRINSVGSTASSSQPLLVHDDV

Sequence of KIT on GIST-430/654 cells (human (GIST-430/654)) (P10721 26-976): as above
Sequence of KIT on GIST-T1 cells (human (GIST-T1)) (P10721 26-976): as above

Sequence: ATTCAAGGGGCCGGGGCAAGGGGGGGGTACCGTGGTAGGACATAGT [KIT-d]
- Kd [1]: 109 nM
- Kd [2]: 76 nM
- Kd [3]: 41.6 nM

Source: PMC12439145
